This note sets out measurements from the supplement of paper PMC9170038.

Conditions in all cases: FMN input: 0 or 200 uM; Eterna round: R93 (includes R88 designs)
In data set [1] the test system is MS2 coat protein. Nature of the data set: apparent KD of MS2 coat protein, switch ON state; designed switch direction (-1 OFF switch, 1 ON switch): 1; higher = weaker reporter binding. Put shortly: (§1)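 Designed RNA switches were transcribed on-chip from Illumina sequencing clusters. They were then titrated with SNAP-549-labelled MS2 coat protein (twofold steps, 0.7 or 1.5 nM to 3 µM; 0.8–1.5 h to 10–20 min per step) in 100 mM Tris-HCl pH 7.5, 80 mM KCl, 4 mM MgCl2, without or with constant ligand. Apparent KD is the per-design median of normalised cluster binding-curve fits.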

Data set [2] deals with MS2 coat protein. As to the kind of experiment: apparent KD of MS2 coat protein, switch OFF state (with FMN for OFF switches, without FMN for ON switches); designed switch direction (-1 OFF switch, 1 ON switch): 1; higher = weaker reporter binding. A digest of the protocol: as §1
For data set [3], the system named is MS2 coat protein. As to the kind of experiment: apparent KD of MS2 coat protein, switch OFF state (with FMN for OFF switches, without FMN for ON switches); designed switch direction (-1 OFF switch, 1 ON switch): -1; higher = weaker reporter binding. Put shortly:
as §1

In data set [4] the test system is MS2 coat protein. Nature of the data set: apparent KD of MS2 coat protein, switch ON state; designed switch direction (-1 OFF switch, 1 ON switch): -1; higher = weaker reporter binding. A digest of the protocol: as §1

As to “AAAAGACAUGAGGAUCACCCAUGUAGGCCAAAGCAAGGAUAUAGGCCACAGGGACGUGGACUAGAAGGUGCACGGC [Xereedes]”, the “apparent KD of MS2 coat protein” value in the data set on MS2 coat protein [1] came to 21.9 nM; in the data set with MS2 coat protein [2], 107 nM. For the sequence “ACCCGACAUGAGGAUCACCCAUGUAAACAAUCAUGAGGAUAUCCGGAGCAAGUGCUCCAGGGAGAAGGCAUAAAAG [Reesbema]”, the “apparent KD of MS2 coat protein” value in the data set on MS2 coat protein [2] was 122 nM. In the case of “AGGUAACAUGAGGAUCACCCAUGUACCAAUAAUGCAGGAUAUCGACACGAAAAUACGUGUCGAGAAGGGCAUGAAA [SS1 MT 22]”, in the data set with MS2 coat protein [1], the “apparent KD of MS2 coat protein” value worked out at 13.4 nM. For “GGUUGUGAAGGAUAUACAUGAGGAUCACCCAUGUGAGAGAAAAAAGUGAGAAAGAAAAGUAGAAGGUCGUGACG [salish99-ex3-73]”, the “apparent KD of MS2 coat protein” value in the data set on MS2 coat protein [3] worked out at 40.2 nM; in the data set on MS2 coat protein [4], 34.7 nM. For “GUAAACCUAGGAUAUACAUGAGGAUCACCCAUGUAAAAUUUCAUAAAAAGAAAAUCAAGUAGAAGGAGGUAGAU [JR_Exc003_Sub1223]”, the “apparent KD of MS2 coat protein” value was 24.8 nM with MS2 coat protein [3] and 17.3 nM in the data set on MS2 coat protein [4]. As for “GUGUACAGAGGAUAUACAUGAGCUAGGAAACUAGCAAGAUCACAUGAGGAUCACCCAUGUAGAAGGCUGUACAC [Ex2: 734]”, the “apparent KD of MS2 coat protein” value in the data set with MS2 coat protein [3] was 16.3 nM; with MS2 coat protein [4], 70 nM. Turning to “GUUGUGCGAGGAUAUAUGUGAGGUUUGCCUCAACAGGUAAUACAUGAGGAUCACCCAUGUAGAAGGCGCAUGAG [S1-(23.6);S2-(22.1) [87C]]”, the “apparent KD of MS2 coat protein” value turned out to be 342 nM with MS2 coat protein [3] and 67.3 nM in the data set with MS2 coat protein [4]. For the sequence “UAAAAACAUGAGGAUCACCCAUGUGAGGAUAUCGAAAAAAAAAAAUUAAAAAAGGAAGCGAGAAGGUACGGGAU [close, no cigar]”, the figures for the “apparent KD of MS2 coat protein” value in the data set on MS2 coat protein [3] and with MS2 coat protein [4] were 33.2 nM and 33.3 nM, respectively.

Take “UAAAGACAUGAGGAUCACCCAUGUGAGGAUAUCGGAGAUAACAGAACAUCAAGUUCAGCGAGAAGGCACAGAAA [JR_Exc001_Sub402]”: the “apparent KD of MS2 coat protein” value in the data set with MS2 coat protein [3] was found to be 72 nM; in the data set with MS2 coat protein [4], 47.2 nM. For “UAAAGACAUGAGGAUCACCCAUGUGAGGAUAUCGGAGGUGACGGAACAUCGAGUUCGGCGAGAAGGCGCAGGAA [JR_Exc001_Sub408]”, the “apparent KD of MS2 coat protein” value was found to be 49 nM in the data set on MS2 coat protein [3] and 69.6 nM in the data set with MS2 coat protein [4]. Take “UAGAACCUAGGAUAUACUUGGACCACUAAUUUACAGAUAUAACAUGAGGAUCACCCAUGUAGAAGGAGGAGUAA [JR_Exc002_Sub202]”: the “apparent KD of MS2 coat protein” value in the data set on MS2 coat protein [3] is 25.7 nM; in the data set on MS2 coat protein [4], 36.8 nM. With “UAUAUACAUGAGGAUCACCCAUGUCAGGAUAUGCGCCUAGAAUAUACAUAAGAUACAAGCAGAAGGGACACUAA [JR_Exc001_Sub206]”, the “apparent KD of MS2 coat protein” value in the data set with MS2 coat protein [3] is 49.9 nM; with MS2 coat protein [4], 57.3 nM. The matching figures for “UAUGAGCGAGGAUAUGCUUGGGACUGUCGGAAUGUGGCGGGACAUGAGGAUCACCCAUGUAGAAGGCGCGAGCG [Harteesian Stick]”: 126 nM and 77.9 nM.

Consider “UCCGAACAUGAGGAUCACCCAUGUCAGGAUAUACACCCAGCAUGUAAACCAUGCUCAAGUAGAAGGGACGGGUG [Teisaes]”, for which the “apparent KD of MS2 coat protein” value in the data set with MS2 coat protein [3] amounted to 25.7 nM; in the data set with MS2 coat protein [4], 34.9 nM.

As to “UCCUCACAUGAGGAUCACCCAUGUGAGGAUAUGUACAUCAGGAAAAAAAAACUGAUGUACAGAAGGCACAUGGG [Design 8: Super Stable G-C]”, the “apparent KD of MS2 coat protein” value in the data set on MS2 coat protein [3] amounted to 15.2 nM; in the data set with MS2 coat protein [4], 30.8 nM. Consider “UCGUGGUCAGGAUAUACAUGAGGAUCACCCAUGUAAAAGAACAUAAAGGAGAGACGACGUAGAAGGGACAAAUA [Ralasoena]”, for which the “apparent KD of MS2 coat protein” value with MS2 coat protein [3] was determined as 51.5 nM; in the data set on MS2 coat protein [4] it was 46.3 nM. Take “UGCAUGUAAGGAUAUGCAACCGGCGCACAUUAGCAGGUCAAGCAGAAGGUACAUGAGGAUCACCCAUGUGUCCG [Lalebiis]”: the “apparent KD of MS2 coat protein” value with MS2 coat protein [3] worked out at 99.4 nM; with MS2 coat protein [4], 26.9 nM. The matching figures for “UGUUGGCGAGGAUAUACAUGAGGAUCACCCAUGUGAGAGAAAAAAGUGAGAAAGAAAAGUAGAAGGCGCUGACC [salish99-ex3-10]”: 203 nM and 68.5 nM. As to “UUUAUGUGAGGAUAUCAGUAGUAAAAAAAUAAAAUUACUACUGAGAAGGCACAUGAGGAUCACCCAUGUGAAAA [EX4 340: Super Stable 40]”, the “apparent KD of MS2 coat protein” value with MS2 coat protein [3] came out at 161 nM; in the data set on MS2 coat protein [4], 61.9 nM.

As for “UUUUGACAUGAGGAUCACCCAUGUCAGGAUAUAGUAGGAAAAAAAAAAAAAAAAACUACUAGAAGGGAUAUGGA [Design 15: Not So Super Stable 1]”, the “apparent KD of MS2 coat protein” value in the data set on MS2 coat protein [3] stood at 40.2 nM; in the data set with MS2 coat protein [4], 21.7 nM.
